Experimental findings from patent US20200255860, “A STRONG INSULATOR AND USES […] IN GENE DELIVERY” (CHILDREN'S HOSPITAL MEDICAL CENTER, published 2020) are described below.

What all share (settings): tags: full-length, Abnova; label: IRDye700 5' both strands
The target in data set [1] is T1, CTCF (Homo sapiens, UniProt P49711 P49711:1-727).
T1 sequence: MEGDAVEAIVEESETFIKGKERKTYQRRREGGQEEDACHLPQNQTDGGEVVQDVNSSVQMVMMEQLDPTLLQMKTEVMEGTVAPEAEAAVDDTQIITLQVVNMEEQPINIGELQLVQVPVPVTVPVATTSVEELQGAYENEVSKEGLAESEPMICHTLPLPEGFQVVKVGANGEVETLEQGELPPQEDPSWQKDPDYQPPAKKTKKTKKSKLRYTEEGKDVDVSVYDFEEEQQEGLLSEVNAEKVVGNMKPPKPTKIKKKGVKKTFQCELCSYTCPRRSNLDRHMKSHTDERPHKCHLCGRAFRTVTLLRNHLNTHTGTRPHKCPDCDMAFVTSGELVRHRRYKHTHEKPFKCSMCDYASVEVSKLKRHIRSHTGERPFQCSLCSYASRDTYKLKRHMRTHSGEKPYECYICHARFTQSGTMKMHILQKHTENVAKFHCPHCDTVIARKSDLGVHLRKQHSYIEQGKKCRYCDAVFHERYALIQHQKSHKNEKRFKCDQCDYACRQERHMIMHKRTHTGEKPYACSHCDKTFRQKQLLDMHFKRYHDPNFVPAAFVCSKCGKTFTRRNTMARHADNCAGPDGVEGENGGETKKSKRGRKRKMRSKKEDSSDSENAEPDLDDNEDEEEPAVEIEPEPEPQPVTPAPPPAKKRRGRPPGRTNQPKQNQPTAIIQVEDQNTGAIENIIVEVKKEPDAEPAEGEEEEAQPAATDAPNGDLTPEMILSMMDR
The data set can be described thus: EMSA; 20 mM HEPES pH 7.5, 50 mM KCl, 5 mM MgCl2, 3.3 uM ZnSO4, poly(dI:dC), room temp; competed by unlabeled H19. (In EMSA bound probe runs differently from free probe, usually more slowly.)

The target in data set [2] is T1, CTCF. The data set can be described thus: EMSA; region 4 mutated, no effect.
Data set [3] addresses T1, CTCF. The data set can be described thus: EMSA; no LV probe bound.

B1: FV2 probe (dsDNA)
DNA 1: AGTAAAAGGATTTGTATATTAGCCTTGCTAAGGGAGACATCTAGTGATATAAGTGTGAACTACACTTATCTTAAATGATG
DNA 2: CATCATTTAAGATAAGTGTAGTTCACACTTATATCACTAGATGTCTCCCTTAGCAAGGCTAATATACAAATCCTTTTACT
Consider B1, for which, in the data set with CTCF [1], the binding result is reported as “binds”.

B2: FV2 mutant 4 (dsDNA)
DNA 1: AGTAAAAGGATTTGTATAGGCTTTATATCAAGGGAGACATCTAGTGATATAAGTGTGAACTACACTTATCTTAAATGATG
DNA 2: CATCATTTAAGATAAGTGTAGTTCACACTTATATCACTAGATGTCTCCCTTGATATAAAGCCTATACAAATCCTTTTACT
Turning to B2, the binding result with CTCF [2] was “binds”.

B3: LV1 probe (dsDNA)
DNA 1: ACAAGATAGAGGAAGAGCAAAACAAAAGTAAGACCACCGCACAGCAAGCGGCCGCTGATCTTCAGACCTGGAGGAGGAGATATGAGGGA
DNA 2: TCCCTCATATCTCCTCCTCCAGGTCTGAAGATCAGCGGCCGCTTGCTGTGCGGTGGTCTTACTTTTGTTTTGCTCTTCCTCTATCTTGT
Consider B3, for which, in the data set with CTCF [3], the binding result is recorded as “no binding”.

B4: LV3 probe (dsDNA)
DNA 1: GTCGGGGAAGCTGACGTCCTTTCGAATTCGATATCAAGCTGTACCTTTAAGACCAATGACTTACAAGGCAGCTGTAGATC
DNA 2: GATCTACAGCTGCCTTGTAAGTCATTGGTCTTAAAGGTACAGCTTGATATCGAATTCGAAAGGACGTCAGCTTCCCCGAC
As to B4, the binding result with CTCF [3] is “no binding”.

B5: LV2 probe (dsDNA)
DNA 1: GATACCTAAAGGATCAACAGCTCCTGGGGATTTGGGGTTGCTCTGGAAAACTCATTTGCACCACTGCTGTGCCTTGGAATGCT
DNA 2: AGCATTCCAAGGCACAGCAGTGGTGCAAATGAGTTTTCCAGAGCAACCCCAAATCCCCAGGAGCTGTTGATCCTTTAGGTATC
As for B5, the binding result in the data set with CTCF [3] is listed as “no binding”.
